Assay results: article PMC9630439
Where “and” joins values, the source holds several entries; their conditions need not be identical. Equal values may be shown once.

Experiments:
[1] = target: fully assembled GPa3b17 TCR (TCRαβ/CD3δγε2ζ2 complex, CD3 cytosolic domains truncated, CD3-δ tagged with GFP2) (human) (UniProt P07766); test: flow cytometry on cells; CHO cells transduced with lentivirus combinations, stained with Alexa Fluor 647-labelled gp100/HLA-A2, 30 min at 4 °C in the dark
[2] = target: GPa3b17 TCR complex expressed without CD3-ζ (TCR-αβ/CD3-δγε2) (human) (UniProt P07766); test: as above

median fluorescence intensity following pMHC staining [1]: 135000 and 144000
median fluorescence intensity following pMHC staining [2]: 116000
Substance: gp100/HLA-A2 (soluble gp100 peptide / HLA-A*02:01 / β2-microglobulin monomer with C-terminal HPC-4 epitope) (from UniProt P61769 22-119) (peptide-MHC)
